Measurements taken from patent US9012420B2, “Aptamer for chymase, and use thereof” (Ribomic Inc., priority 2009, dated 2015).
Oligonucleotides are written 5' to 3', each unit as a sugar letter and its base; * is a phosphorothioate linkage, no mark a phosphodiester; rarer units and linkages stand in square brackets, end groups in braces. Plain capitals give the bases only. r = 2'-OH (RNA); f = 2'-fluoro

T1: chymase (Homo sapiens, UniProt P23946)
T1 sequence (P23946 22-247): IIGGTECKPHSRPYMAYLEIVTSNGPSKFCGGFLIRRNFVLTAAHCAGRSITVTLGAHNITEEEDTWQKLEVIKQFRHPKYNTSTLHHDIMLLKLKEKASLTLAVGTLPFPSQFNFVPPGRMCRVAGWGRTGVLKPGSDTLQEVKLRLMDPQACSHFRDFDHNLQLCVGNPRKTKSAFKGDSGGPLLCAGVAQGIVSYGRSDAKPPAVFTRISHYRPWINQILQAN

T2: chymase (recombinant) (UniProt P23946 P23946:22-247)
T2 sequence: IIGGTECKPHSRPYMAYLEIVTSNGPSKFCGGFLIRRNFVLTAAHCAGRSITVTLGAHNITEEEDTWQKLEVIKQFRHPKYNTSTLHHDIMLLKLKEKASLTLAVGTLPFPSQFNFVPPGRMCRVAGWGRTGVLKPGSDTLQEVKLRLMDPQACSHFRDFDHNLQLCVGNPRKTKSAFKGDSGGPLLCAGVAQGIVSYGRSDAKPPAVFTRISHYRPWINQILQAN

T3: chymase (recombinant, manufactured by SIGMA) (Homo sapiens, UniProt P23946)
T3 construct: purchased SIGMA; host or cells: yeast
T3 sequence (P23946 22-247): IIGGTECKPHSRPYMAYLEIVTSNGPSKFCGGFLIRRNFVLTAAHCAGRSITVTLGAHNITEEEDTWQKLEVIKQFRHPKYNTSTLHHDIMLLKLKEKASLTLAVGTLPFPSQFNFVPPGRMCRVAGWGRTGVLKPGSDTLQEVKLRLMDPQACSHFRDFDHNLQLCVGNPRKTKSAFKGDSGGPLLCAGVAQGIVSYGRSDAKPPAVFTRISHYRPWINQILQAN


What was measured:
[1] = target: T1, chymase; assay: Surface plasmon resonance (Biacore T100), aptamer immobilized on SA chip, chymase injected as analyte; type: binding; details: Table 1; about 1000 RU nucleic acid immobilized, chymase 0.2 μM analyte, running buffer solution A; compared with 40N
Experimental: (§1) Binding strength is measured using Biacore T100 (manufactured by GE Healthcare). In a method of measurement, the aptamer is first immobilized onto a sensor chip, the amount immobilized being about 1000 RU. 20 μL of a chymase solution for analyte, prepared at 0.2 μM, is injected, and the binding of chymase to the aptamer is detected. An RNA comprising a random nucleotide sequence of 30 or 40 nucleotides is used as a negative control.
(§2) The binding activities against chymase of the nucleic acids shown by SEQ ID NO: 4-20 and 22-34 were determined by the surface plasmon resonance method using Biacore T100 (manufactured by GE Healthcare). The sensor chip used was the SA chip, which had streptavidin immobilized thereon. Bound thereto was about 1500 RU of a 16-nucleotide Poly dT with biotin bound to the 5′ end thereof. […] 20 μL of chymase for analyte, prepared at 0.2 μM, was injected. Solution A was used as a running buffer.
(§3) The binding activities against chymase of the nucleic acids shown by SEQ ID NO: 38-48 were evaluated by the surface plasmon resonance method. In the evaluations for SEQ ID NO: 38-48, measurements were taken in the same manner as Example 1. Solution C was used as a running buffer.

[2] = target: T2, chymase (recombinant); assay: inhibition; SPR ++; details: tags: SIGMA, expressed in yeast
Experimental: (§4) Here, Suc is a protecting succinyl group, and MCA is a 4-methylcoumaryl-7-amide group; upon cleavage of the C-terminal side of phenylalanine, AMC (7-amino-4-methyl-coumarine) is released. By detecting the fluorescence of this AMC, the enzyme activity of chymase can be determined. The assay was performed using a 96-well plate (F16 Black Maxisorp Fluoronunc, manufactured by Nunc), with a reaction mixture volume of 100 μL, in solution C as a buffer solution. First, each nucleic acid was serially diluted to 0.0027-2 μM concentrations in solution C to obtain 50 μL solutions. After 10 μL of the 1 mM substrate prepared in solution C was added thereto, the plate was set to the microplate reader SpectraMax190 (manufactured by Molecular Devices Corporation), and incubated at 37° C. for 5 minutes. Separately, 0.05 μg (or 0.005 μg) of chymase (recombinant, manufactured by SIGMA) was diluted in solution C to obtain a 40 μL chymase solution, and incubated at 37° C. for 5 minutes. The chymase solution was added to the mixture of the nucleic acid and substrate to initiate an enzyme reaction. The final chymase concentration in the reaction mixture was 16.7 nM (or 1.67 nM), the final substrate concentration being 100 μM. The plate containing the reaction mixture was set to the microplate reader SpectraMax190 (manufactured by Molecular Devices Corporation), and examined for time-dependent changes in the fluorescence intensity at 37° C. for 5 minutes (or 30 minutes) (excitation wavelength 380 nm, detection wavelength 460 nm). A linear approximation of the increase in the fluorescence of the AMC released from the substrate by chymase activity was generated, and its slope was taken as the initial velocity […]. For control, samples were treated and analyzed in the same manner in two cases: use of a 30N or 40N (a nucleotide of 30 or 40 consecutive bases represented by N; N is A, G, C or T) nucleic acid pool (negative control), and use of chymostatin, a known chymotrypsin-like serine protease inhibitor (positive control). Taking the initial reaction velocity without the nucleic acid and inhibitor (V_0) as a 100% enzyme activity, the inhibitory rate of each test substance was calculated using the following equation: […]
The chymase inhibitory activity was measured in the same manner as in Example 3.

[3] = target: T2, chymase (recombinant); assay: inhibition; SPR ++ (Table 2); details: tags: SIGMA, expressed in yeast
Experimental: as §4

[4] = target: T3, chymase (recombinant, manufactured by SIGMA); assay: Chymase inhibitory activity using synthetic substrate Suc-Ala-Ala-Pro-Phe-MCA; type: biochemical; details: Table 3; substrate 100 μM, solution C, 37° C.; mean value for 2 to 3 measurements
Summary of the method: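 Human recombinant chymase (16.7 nM or 1.67 nM final) preincubated 5 min at 37° C., then added to nucleic acid (0.0027–2 μM serial dilutions) and 100 μM substrate in solution C. AMC fluorescence (ex 380/em 460 nm) followed 5 or 30 min at 37° C.; slope gives initial velocity, inhibition versus no-inhibitor control yields IC50.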

[5] = target: T1, chymase; assay: Surface plasmon resonance (Biacore T100), aptamer immobilized on SA chip, chymase injected as analyte; type: binding; design: key: ++: a sequence that binds to chymase significantly more strongly than the negative control 30N; details: Table 2; same manner as Example 1, running buffer solution C; compared with 30N
Experimental: as §1, §2, §3

Molecule	IC50 [2] [nM]	IC50 [3] [nM]	other results
GGGACGGUAGGAAUUCGUCGAUUCUACAGAUAGAGAUAAAGUAGAAUUUAACAAAACAUAGAAGAGCGGCCGC (nucleic acid, aptamer) rGrGrGrAfCrGrGfUrArGrGrArAfUfUfCrGfUfCrGrAfUfUfCfUrAfCrArGrAfUrArGrArGrAfUrArArArGfUrArGrArAfUfUfUrArAfCrArArArAfCrAfUrArGrArArGrArGfCrGrGfCfCrGfC	–	–	Binding activity as determined using Biacore [1]: higher binding activity than 40N
GGGTTAGAUAGAGUUAAAAACCC (mixed, idT-G(M)G(M)G(M)ttAG(M)A(M)U(F)A(M)GAG(M)U(F)U(F)A(M)A(M)A(M)A(M)A(M)C(F)C(F)C(F)-idT (lower case DNA)) [SEQ 70]	27	–	–
GGGUUAGAUAGAGUUAAAAACCC (ssRNA, idT-G(M)G(M)G(M)U(F)U(F)AG(M)AU(F)A(M)GAG(M)U(F)U(F)A(M)A(M)A(M)A(M)A(M)C(F)C(F)C(F)-idT (M=2'-OMe, F=2'-F)) [56(31)]	23	–	–
SEQ 41 (ssRNA, 2'-F pyrimidines) RNA: GGGAGCAGGAGAGAGGUCAGAUGGUGAGAUAGAGUUAAACACCACAAUAGUAGCCUAUGCGUGCUAGUGUGA	–	60	–
41 (nucleic acid, aptamer; 2'-fluoro at CU, RNA at AG, backbone not given here) GGGAGCAGGAGAGAGGUCAGAUGGUGAGAUAGAGUUAAACACCACAAUAGUAGCCUAUGCGUGCUAGUGUGA	–	–	IC50 [4]: 60 ± 17 nM; Binding activity as determined using Biacore [5]: ++
SEQ 45 (ssRNA, 2'-F pyrimidines) RNA: GGGAGCAGGAGAGAGGUCAGAUGGACCACCGAUGGGCAAGAUAGAGUUAAAUGCCUAUGCGUGCUAGUGUGA	–	74	–
SEQ 48 (ssRNA, 2'-F pyrimidines) RNA: GGGAGCAGGAGAGAGGUCAGAUGUGAAGAUAGAGAUAAAUCACAUACAGUCGGCCUAUGCGUGCUAGUGUGA	–	95	–
GGGUUAGAUAGAGUUAAAAACCC (ssRNA, idT-G(M)G(M)G(M)U(F)U(F)AGAU(F)A(M)GAG(M)U(F)U(F)A(M)A(M)A(M)A(M)A(M)C(F)C(F)C(F)-idT (M=2'-OMe, F=2'-F)) [56(32)]	17	–	–
SEQ 47 (ssRNA, 2'-F pyrimidines) RNA: GGGAGCAGGAGAGAGGUCAGAUGGUGAUAGAUAGAGUUAAAAUCGCUGAAUGGCCUAUGCGUGCUAGUGUGA	–	58	–
SEQ 38 (ssRNA, 2'-F pyrimidines) RNA: GGGAGCAGGAGAGAGGUCAGAUGGAUAGAGUUAAGAUCUGGCUGGCGCAUUAGCCUAUGCGUGCUAGUGUGA	–	50	–
GGGUUAGAUAGAGTUAAAAACCC (mixed, idT-G(M)G(M)G(M)U(F)U(F)AG(M)A(M)U(F)A(M)GAG(M)tU(F)A(M)A(M)A(M)A(M)A(M)C(F)C(F)C(F)-idT (lower case DNA)) [SEQ 71]	28	–	–
GGGTTAGAUAGAGTUAAAAACCC (mixed, idT-G(M)G(M)G(M)ttAG(M)aU(F)A(M)GAG(M)tU(F)A(M)A(M)A(M)A(M)A(M)ccc-idT (lower case DNA)) [72(1)]	13	–	–
GGGUUAGAUAGAUUUAAAAACCC (ssRNA, G(M)G(M)G(M)U(F)U(F)AG(M)A(M)U(F)A(M)GAU(F)U(F)U(F)A(M)A(M)A(M)A(M)A(M)C(F)C(F)C(F) (M=2'-OMe, F=2'-F)) [61(1)]	78	–	–
